Assay results as given in article PMC6637204, “Inactivating mutations and X-ray crystal structure of the tumor suppressor OPCML reveal cancer-associated functions” (Nature Communications, 2019).

Key:
[1] = target: the molecule itself; test: SDS-PAGE without heat denaturation, western blot; extracts of transduced cells run without prior heat denaturation, anti-OPCML blot
[2] = target: the molecule itself; test: SAXS; WT OPCML in 50 mM HEPES pH 7.5, 200 mM sodium chloride, 2% glycerol, 0.02% sodium azide; three concentrations merged; fit to dimer and monomer models
[3] = target: the molecule itself; test: SEC; gel filtration; dilutions equilibrated 24 h, 50 µL on Superdex 200 10/30 GL at 0.5 mL/min; peak elution volume against concentration fit to a monomer-dimer equilibrium (dimer to monomers)
[4] = target: the molecule itself; test: SEC-MALLS; samples at 1 µg/µL, 1 mL/min in PBS pH 7.4, room temperature
[5] = SYPRO Orange thermal shift assay; settings: glycan lost; control: wild type
[6] = MTS viability, R428 IC50, SKOV3; settings: glycan lost; control: wild type
[7] = Caspase-Glo 3/7 assay, SKOV3; settings: glycan lost; control: wild type
[8] = recombinant secretion from insect cells; settings: glycan lost; control: wild type
[9] = western blot, transduced SKOV3, PEA1, PEO1; settings: glycan lost; control: wild type
[10] = immunofluorescence confocal microscopy; settings: glycan lost; control: wild type
gel filtration = settings: glycan lost; control: wild type

B1: wild-type OPCML expressed in transduced cancer cells (natural protein, human, UniProt Q14982 28-322, looked up)
chain: GVPVRSGDATFPKAMDNVTVRQGESATLRCTIDDRVTRVAWLNRSTILYAGNDKWSIDPRVIILVNTPTQYSIMIQNVDVYDEGPYTCSVQTDNHPKTSRVHLIVQVPPQIMNISSDITVNEGSSVTLLCLAIGRPEPTVTWRHLSVKEGQGFVSEDEYLEISDIKRDQSGEYECSALNDVAAPDVRKVKITVNYPPYISKAKNTGVSVGQKGILSCEASAVPMAEFQWFKEETRLATGLDGMRIENKGRMSTLTFFNVSEKDYGNYTCVATNKLGNTNASITLYGPGAVIDGVN
notes: OPCML, human, WT cDNA from pENTR4 shuttled to pLenti CMV Puro DEST; GPI-anchored, membrane-localized; also called WT OPCML; WT; source: SKOV3, PEA1, PEO1 and HCT116 cells, stably transduced (lentivirus, pLenti CMV Puro DEST); on cells or in lysate
[1]
  stoichiometry N: 2

B2: soluble recombinant wild-type OPCML (residues 36-316, D1-D3) (domain or fragment, human, UniProt Q14982 36-316, looked up)
chain: ATFPKAMDNVTVRQGESATLRCTIDDRVTRVAWLNRSTILYAGNDKWSIDPRVIILVNTPTQYSIMIQNVDVYDEGPYTCSVQTDNHPKTSRVHLIVQVPPQIMNISSDITVNEGSSVTLLCLAIGRPEPTVTWRHLSVKEGQGFVSEDEYLEISDIKRDQSGEYECSALNDVAAPDVRKVKITVNYPPYISKAKNTGVSVGQKGILSCEASAVPMAEFQWFKEETRLATGLDGMRIENKGRMSTLTFFNVSEKDYGNYTCVATNKLGNTNASITLYGPGA
modifications: N-linked glycans modelled at asparagines 70, 293 and 306
notes: OPCML, human, UniProt Q14982, residues 36-316 (D1-D3); also called WT OPCML; rOPCML; source: Hi5 insect cells, baculovirus, secreted; purified (protein A, thrombin digestion, negative protein A, HiTrap Q, SEC); not shown: Fc (human IgG1, UniProt P01857 residues 118-330, joined by ALVPRGS), C-terminal, cleaved
[2]
  stoichiometry N: 2

B3: soluble recombinant OPCML R65L (residues 36-316) (domain or fragment, human, UniProt Q14982 36-316, looked up)
chain: ATFPKAMDNVTVRQGESATLRCTIDDRVTLVAWLNRSTILYAGNDKWSIDPRVIILVNTPTQYSIMIQNVDVYDEGPYTCSVQTDNHPKTSRVHLIVQVPPQIMNISSDITVNEGSSVTLLCLAIGRPEPTVTWRHLSVKEGQGFVSEDEYLEISDIKRDQSGEYECSALNDVAAPDVRKVKITVNYPPYISKAKNTGVSVGQKGILSCEASAVPMAEFQWFKEETRLATGLDGMRIENKGRMSTLTFFNVSEKDYGNYTCVATNKLGNTNASITLYGPGA
notes: OPCML, human, UniProt Q14982, residues 36-316 (D1-D3), clinical somatic mutation R65L; Same construct as m1 with R65L; PDB 5UV6 is the wild-type parent; ALVPR probably left at the C-terminus after thrombin (surmised); also called rR65L; source: Hi5 insect cells, baculovirus, secreted; purified (protein A, thrombin digestion, negative protein A, HiTrap Q, SEC); not shown: Fc (human IgG1, UniProt …)
[3]
  fold weaker Kd than WT OPCML: ≥ 250 fold

B4: soluble recombinant OPCML P95R (residues 36-316) (domain or fragment, human, UniProt Q14982 36-316, looked up)
chain: ATFPKAMDNVTVRQGESATLRCTIDDRVTRVAWLNRSTILYAGNDKWSIDPRVIILVNTRTQYSIMIQNVDVYDEGPYTCSVQTDNHPKTSRVHLIVQVPPQIMNISSDITVNEGSSVTLLCLAIGRPEPTVTWRHLSVKEGQGFVSEDEYLEISDIKRDQSGEYECSALNDVAAPDVRKVKITVNYPPYISKAKNTGVSVGQKGILSCEASAVPMAEFQWFKEETRLATGLDGMRIENKGRMSTLTFFNVSEKDYGNYTCVATNKLGNTNASITLYGPGA
notes: OPCML, human, UniProt Q14982, residues 36-316 (D1-D3), clinical somatic mutation P95R; Same construct as m1 with P95R; PDB 5UV6 is the wild-type parent; ALVPR probably left at the C-terminus after thrombin (surmised); also called rP95R; source: Hi5 insect cells, baculovirus, secreted; purified (protein A, thrombin digestion, negative protein A, HiTrap Q, SEC); not shown: Fc (human IgG1, UniProt …)
[4]
  stoichiometry N: 2

B5: OPCML: N70H (protein)
parent chain: MGVCGYLFLPWKCLVVVSLRLLFLVPTGVPVRSGDATFPKAMDNVTVRQGESATLRCTIDDRVTRVAWLNRSTILYAGNDKWSIDPRVIILVNTPTQYSIMIQNVDVYDEGPYTCSVQTDNHPKTSRVHLIVQVPPQIMNISSDITVNEGSSVTLLCLAIGRPEPTVTWRHLSVKEGQGFVSEDEYLEISDIKRDQSGEYECSALNDVAAPDVRKVKITVNYPPYISKAKNTGVSVGQKGILSCEASAVPMAEFQWFKEETRLATGLDGMRIENKGRMSTLTFFNVSEKDYGNYTCVATNKLGNTNASITLYGPGAVIDGVNSASRALACLWLSGTLLAHFFIKF
[5]
  stability_or_folding, Tm: decreases
[6]
  other: sensitisation to AXL inhibitor: abolishes
[7]
  other: R428-induced apoptosis: abolishes
[8]
  expression_or_secretion: decreases
[9]
  expression_or_secretion: no change
[10]
  localisation_or_trafficking: no change
Gel filtration
  other: aggregation: increases
